From patent US20230357340A1

Columns and labels:
[1] = molecular target: recombinant mouse IL-18 protein (mouse) (UniProt P70380)
[2] = molecular target: recombinant human IL-18 (human) (UniProt Q14116); assay: cell-based or functional assay
Chain of recombinant human IL-18 (human) (Q14116 37-193 limits assumed): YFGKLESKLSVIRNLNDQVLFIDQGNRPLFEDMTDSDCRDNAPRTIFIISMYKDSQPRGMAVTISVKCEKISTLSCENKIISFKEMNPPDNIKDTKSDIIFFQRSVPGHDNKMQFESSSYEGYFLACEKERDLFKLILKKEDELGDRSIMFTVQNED

Chain of recombinant mouse IL-18 protein (mouse) (P70380 36-192 limits assumed): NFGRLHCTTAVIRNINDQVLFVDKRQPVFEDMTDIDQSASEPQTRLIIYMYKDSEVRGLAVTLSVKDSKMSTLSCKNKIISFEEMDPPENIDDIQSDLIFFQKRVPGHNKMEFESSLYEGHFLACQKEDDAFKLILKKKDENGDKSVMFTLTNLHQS

IC50 (read off the curve); mouse IL-18-induced IFN-γ secretion by mouse CD4+ T cells [1] | IC50 of inhibition of IL-18-induced IFN-γ production in KG-1 cells [2] | Substance
0.3 nM | 0.024 nM | recombinant human interleukin-18-binding protein with C-terminal His-tag (hIL18BP-his8) (from UniProt O95998 31-194)
1 nM | – | hIL18BP-His(SinoBio.) (from UniProt O95998)
